Data published in CN109912717A.

Tests used:
[1] = biological target: 人CD40 (HEK293A细胞表达) (human) (UniProt P25942); test: cell-based or functional assay
人CD40(ECD)-his蛋白 (human) = 人CD40(ECD)-his蛋白 (human) (UniProt P25942); test: SPR Biacore 8K; human CD40(ECD)-his coupled to CM5, antibody as analyte, 1:1 model
人CD40(ECD)-his蛋白 (human), sequence (P25942 21-193): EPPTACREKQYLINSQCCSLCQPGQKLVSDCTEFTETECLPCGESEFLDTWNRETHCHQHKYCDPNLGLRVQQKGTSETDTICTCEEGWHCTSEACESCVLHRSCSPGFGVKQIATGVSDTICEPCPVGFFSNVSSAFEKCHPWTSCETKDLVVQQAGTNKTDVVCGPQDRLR

人CD40 (HEK293A细胞表达) (human), sequence (P25942 21-277 limits assumed): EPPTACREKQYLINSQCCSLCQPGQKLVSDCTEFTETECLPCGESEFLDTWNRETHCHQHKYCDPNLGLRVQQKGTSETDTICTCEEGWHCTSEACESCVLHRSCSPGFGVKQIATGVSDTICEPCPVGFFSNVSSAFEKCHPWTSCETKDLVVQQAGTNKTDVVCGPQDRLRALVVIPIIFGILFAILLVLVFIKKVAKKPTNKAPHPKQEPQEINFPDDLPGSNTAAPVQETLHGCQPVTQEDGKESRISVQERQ

| HEK-Blue EC50 [1] [µg/mL] | Kd (人CD40(ECD)-his蛋白 (human)) [nM] | Substance |
| --- | --- | --- |
| 1.03 | 29 | ADC1013 (antibody) |
| 0.0233 | 1.71 | RO7009789 (antibody) |
